Measured values as given in patent US6767538B2, “Recombinant antibacterial group IIA phospholipase A2 and methods of use thereof” (New York University, priority 1999, dated 2004).

Tests used:
S. aureus RN450 = test: Bactericidal activity toward S. aureus RN450 in RPMI-1640 medium; assay type: cell-based, Staphylococcus aureus; conditions: FIG. 4, 10^6/ml, 1-500 ng/ml, 60 minutes
Protocol: The bactericidal activity of wild-type human and recombinant mutant human and rabbit Group IIA PLA2s against Staphylococcus aureus 52A (10^6 per ml)was determined. S. aureus was incubated with 0.01-100 nM of each Group IIA PLA2 and incubated at 37° C. for 2 hours in RPMI-1640 medium containing 10 mM HEPES, pH 7.4 and 1% (w/v) albumin. After incubation, bacterial viability was determined by measuring the colony forming ability of the bacteria in trypticase soy agar. Bacterial colonies were enumerated after 18-24 hours at 37° C. The results are expressed as the percentage of the colony forming units (CFU) of the original bacterial inoculum (i.e. at T=0).
S. aureus RN450 (10^6/ml) was incubated with 1-500 ng/ml of each Group IIA PLA2 at 37° C. for 60 minutes in RPMI-1640 medium containing 10 mM HEPES, pH 7.4 and 1% (w/v) albumin. Bacterial viability was determined as in Example 3.

S. aureus = test: Antibacterial activity by colony-forming ability of susceptible bacteria; assay type: cell-based, Staphylococcus aureus
Protocol: According to the present invention, the mutant human Group IIA PLA2 of the present invention is characterized by bactericidal activity against gram positive bacteria, such as S. aureus (see Example 3). Antibacterial activity of mutant human Group IIA PLA2 may be quantified by measuring the colony-forming ability of susceptible bacteria that have been incubated with or without increasing amounts of mutant human Group IIA PLA2. Typically, a suspension of 10^6 bacteria/ml (e.g., S. aureus) is exposed to 1-500 ng/ml of mutant human Group IIA PLA2 for 60-90 minutes at 37° C., after which the cells are mixed with molten agar and plated. After overnight growth, bacterial colonies are compared between mutant Group IIA PLA2-treated and untreated cultures.

[1] = tested on: S. aureus RN450 and two clinical isolates, strains 5A (MRSA) and 18; test: Bactericidal activity toward S. aureus RN450 and clinical isolates 5A and 18 in 70% pooled human sera; assay type: cell-based, Staphylococcus aureus; conditions: FIGS. 4 and 5; each of several strains; laboratory medium and 70% human sera, 90 minutes
Protocol: S. aureus RN450 and two clinical isolates, strains 5A (MRSA) and 18 (10^7/ml were incubated with 1-500 ng/ml of each Group IIA PLA2 at 37° C. for 90 minutes in 70% (v/v) pooled human sera diluted in Hanks' balanced salts solution and buffered with 10 mM HEPES, pH7.4.

[2] = tested on: Reynolds strain of Staphylococcus aureus; test: Efficacy of administered mutant PLA2 against S. aureus infection in vivo (i.p. infection in mice); parameters: species or system CD/1 mice
Protocol: Bacteria: Reynolds strain of Staphylococcus aureus (encapsulated; grown overnight on Columbia agar to maximize encapsulation as in experiments shown in Example 6).
Administration of bacteria: 2×10^7/ml in 0.2 ml of sterile RPMI supplemented with 10 mM HEPES (pH 7.4) and 1% bovine serum albumin. Intraperitoneal (i.p.) inoculation.
Adminstration of PLA2: 15 μg/0.2 ml of above medium i.p. approx. 10-15 min after inoculation of bacteria. Control animals received medium alone. Enzyme administered was Mutant [G72K.T103K] Group IIA PLA 2.
a) @ 30, 60, 120, and 240 min after infection, blood samples taken from tail vein from each of 4 animals in control and PLA2-treated groups. There were a total of 16 animals in each group; each animal was bled only once in this time period. Levels of bacteremia were assessed by measurement of bacterial CFU in blood.
b) @ 1 day after infection, 8 animals from each group were sacrificed. Blood was collected again to measure bacteremia and the peritoneal cavity was washed and inspected to look macroscopically for abscesses (none seen) and measure intraperitoneal bacteria by assay of CFU.
c) @ 6 days after infection, the remaining 8 animals from each group were sacrificed and infection in blood and peritoneal cavity was measured as above (still no abscesses seen). This animal model produces local and disseminated infection in control animals that is eventually self-limiting. The level of metastatic infection is greatest at approx. 6 days. In addition, kidneys were excised, weighed (no significant difference between animals within and between treatment groups) and homogenized to facilitate assay of bacterial CFU within infected kidney (i.e. representing metastatic infection).

Staphylococcus aureus = conditions: 100 ng/ml in biological fluids; 10^6 S. aureus cells/ml, incl. multi-drug resistant clinical isolates; cited from earlier work

Molecule | antibacterial activity compared with wild-type human Group IIA PLA2 (S. aureus RN450) | bactericidal activity compared with WT rabbit Group IIA PLA2 (S. aureus RN450) | antibacterial activity relative to human WT homologue (S. aureus) [×] | activity compared with wild-type human Group IIA PLA2 [1] | activity compared with wild-type rabbit enzyme [1] | abscesses seen ([2]; 6 days after infection, controls two of 16) | treatment of S. aureus infection in vivo ([2]; Example 7) | S. aureus bacteremia (CFU in blood) ([2]; FIG. 10, 15 μg i.p., 30, 60, 120, 240 min after infection) | metastatic kidney infection caused by S. aureus (CFU in kidney) ([2]; FIG. 11, 15 μg i.p., 6 days after infection) | S. aureus cells killed (Staphylococcus aureus)
mutant human Group IIA PLA2: recombinant double mutant G72K.T103K human Group IIA phospholipase A2, protein SEQ. ID. NO. 2, expressed in E. coli (protein) NLVNFHRLIKLTTGKEAALSYGFYGCHCGVGGRGSPKDATDRCCVTHDCCYKRLEKRGCGTKFLSYKFSNSKSRITCAKQDSCRSQLCECDKAAATCFARNKKTYNKKYQYYSNKHCRGSTPRC | increased antibacterial activity | nearly equivalent | 10 | significantly more active | essentially as active | none were seen | effective | reduces | reduces | 
wild-type human Group IIA PLA2: wild-type human Group IIA 14 kDa phospholipase A2, comparator enzyme (protein, UniProt P14555 21-144, looked up) Phospholipase A2, membrane …: NLVNFHRMIKLTTGKEAALSYGFYGCHCGVGGRGSPKDATDRCCVTHDCCYKRLEKRGCGTKFLSYKFSNSGSRITCAKQDSCRSQLCECDKAAATCFARNKTTYNKKYQYYSNKHCRGSTPRC |  |  |  |  |  |  |  |  |  | greater than 99%
